No end group written: not given here. *: point of attachment. 125I = [125I]*
How the values were obtained:
[1] = Rehydration time of lyophilized polymer gels; assay type: physicochemical; conditions: xanthan gum, carrageenan
Procedure: Lyophilized gels were prepared by slowing adding the polymer to water with stirring. For gels with methylcellulose or hydroxypropylcellulose, the polymer was added to hot water and the product was cooled with stirring. The gels took between 1-3 hours to reach maximum viscosity. All gels were allowed to stand for at least 12 hours before any additional processing. If PTH(1-34) was included in the formulation, the peptide was added to an aliquot of gel and gently stirred for 10 minutes.
Prior to lyophilization, gels were filled into Type I glass vials and frozen. Freezing was performed on a freezer shelf (−20° C.) or in a dry ice/ethanol bath (˜−48° C.). The lyophilizer (Ultra-dry Labtop, Freezedry Specialties, Inc) was equipped with a condenser (−50° C.) and an ultra high vacuum pump (DUO 2.5, Pfeiffer Vacuum, Inc) to provide optimal conditions for sublimating the frozen water. No heating or cooling was applied to the lyophilizer shelf. Vials containing lyophilized gels with PTH(1-34) were purged with nitrogen before stoppering (Teflon coated butyl rubber) and sealing (aluminum crimp seal).
A panel of lyophilized polymer gel was screened for the capacity to reform gels following rehydration. […]

[2] = Percutaneous absorption of 125I macromolecules, in vitro cadaver skin finite dose technique; assay type: in vitro ADME, human; conditions: for Total Absorption / Dermis / Epidermis / Stratum Corneum / Surface Wash: 48 hours
Source text: Radiolabeled Bovine Serum Albumin was acquired from American Radiolabeled Chemicals (St. Louis, Mo.) as ARI 0112 Albumin (bovine serum) [I^125] with a specific activity of 204 Ci/mmol (Lot number 080372). Radiolabeled Epidermal Growth Factor (murine) and Somatastatin were acquired from Perkin Elmer Life and Analytical Sciences (Boston, Mass.) as [^125I]-Epidermal Growth Factor (murine) and [^125I]Tyr11-Somatostatin 14 with specific activities of 2200 Ci/mmol (Lot number CC41180) and 2200 Ci/mmol (Lot number JX32880), respectively. Each stock isotope was either provided as, or reconstituted into 12.5 μL of distilled de-ionized water. This volume was added to 500 μL of the provided test formulations and mixed for uniformity. Replicate assessments were made from each final mixture to determine specific activity.
Skin Preparation. Percutaneous absorption was measured using the in vitro cadaver skin finite dose technique. Ex vivo human trunk skin without obvious signs of skin disease, obtained within 24-48 hours of death, was used in this study. Skin was dermatomed, prepared for cryopreservation, sealed in a water impermeable plastic bag, and stored at <−70° C. until the day of the experiment. Prior to use, it was thawed in ˜37° C. water, then rinsed in water to remove any adherent blood or other material from the surface.
Skin from a single donor was cut into multiple smaller sections large enough to fit on static 1.0 cm^2 Franz diffusion cells (see FIG. 6). The dermal chamber was filled to capacity with a reservoir solution of phosphate-buffered isotonic saline (PBS), pH 7.4±0.1, and the epidermal cell (chimney) left open to ambient laboratory conditions. All cells were mounted in a diffusion apparatus in which the dermal bathing solution was stirred magnetically at approximately 600 RPM and the skin surface temperature maintained at 32.0° C.±1.0° C.
To assure the integrity of each skin section, its permeability to tritiated water was determined before application of the test products. Following a brief (0.5-1 hour) equilibrium period, ^3H2O (NEN, Boston, Mass., sp. Act. ˜0.5 μCi/mL) was layered across the top of the skin by dropper so that the entire exposed surface was covered (approximately 250-500 μL). After 5 minutes the ^3H2O aqueous layer was removed. At 30 minutes the receptor solution was collected and analyzed for radioactive content by liquid scintillation counting. Skin specimens in which absorption of ^3H2O was less than 1.56 μL-equ/cm^2 were considered acceptable.
Dosing and Sample Collection. Just prior to dosing, the reservoir solution was replaced with a fresh solution of 1× PBS and a pre-dose sample taken for analysis. The chimney was removed from the Franz Cell to allow full access to the epidermal surface of the skin. All formulations were then applied to the skin sections using a positive displacement pipette set to deliver 5 μL formulation/cm^2. The dose was spread across the surface with the Teflon® tip of the pipette. Five to ten minutes after application, the chimney portion of the Franz Cell was replaced. At pre-selected times after dosing (1, 2, 4, 8, 12, 24, 32, and 48 hours) the reservoir solution was removed in its entirety, replaced with fresh reservoir solution, and a predetermined volume aliquot saved for subsequent analysis.
After the last sample was collected, the surfaces were washed twice (0.5 mL volume each) with 1× PBS to collect un-absorbed formulation from the surface of the skin. Following the wash, the skin was tape stripped a sufficient number of times to collect the stratum corneum. The skin was then removed from the chamber and split into epidermis and dermis. All skin sections were dissolved overnight in Soluene-350® (Perkin Elmer).
Analytical Methods. Analysis of all formulations was by liquid scintillation counting. One-milliliter volumes of each receptor solution and each surface wash received 5-6 mL scintillation fluid or as needed. […]

[3] = Effect of process parameters and excipients on rehydration time of lyophilized HEC gel; assay type: physicochemical; set-up: key: ✓: Additives that had a positive effect (i.e., reduction in hydration time) have a check mark beside them; conditions: additive screening
Procedure: Preliminary studies on rehydration time used water (see Table 13). Rehydration in 12% hexylene glycol, a humectant, decreased the rehydration time for a HEC 250HX lyophilized cake down to 20-30 minutes. Further experiments used 12% hexylene glycol for rehydration.
The freezing rate for lyophilized products can affect the cake structure. Freezing at −20° C. was the standard procedure used in this study. To investigate the effect of a faster freezing rate, samples were frozen in a dry ice/ethanol bath at −48° C.
Samples from both freezing methods were lyophilized. During the lyophilization process, all samples from the ice bath freezing collapsed into dense cakes. During rehydration, the ice bath frozen cakes were much slower to form gels. It took at least 1 hour to rehydrate the ice bath frozen cakes.
HEC 250HX gels at 1.125 and 2.25% polymer were prepared. The latter gel was more viscous than the former due to the higher polymer concentration. After freeze drying, cakes from both products were rehydrated so that the final polymer concentration was 1.125%. The lyophilized gels prepared with the more concentrated polymer solution required approximately 15-20 minutes longer to rehydrate than the more dilute formulation. The higher density of the concentrated polymer cake was likely a factor in the longer rehydration time.
Additives with a wide range of physical properties were screened to evaluate their effect on rehydration time for a lyophilized 1.125% HEC 250HX gel. The chemical classes included in this screen were polymers, surfactants, amino acids, colloidal powders, and salts. All additives were crystalline at room temperature. The use of amorphous excipients could lead to melting/cake collapse at elevated temperature. When evaluating chemical classes, priority was given to those included in the IIG for topicals. Excipients shown to be physically and/or chemically incompatible with PTH(1-34) were excluded (4). Salts containing polyvalent anions were also excluded to avoid the potential for precipitating PTH(1-34).
“Powdered” solid formulations were also evaluated. […]

[4] = assay type: physicochemical
Procedure: All excipients for the room temperature gel formulations met USP/NF monographs. Reagents for analysis were HPLC and/or ACS grade and nitrogen was ultra high purity (>99.999%). PTH(1-34) was supplied by Neo-MPS. Reverse phase HPLC RP-HPLC analysis of reconstituted gels/solutions was performed according to standard methods.
At each time point, two assays were performed on each formulation.
Before preparing larger batches for longer term stability studies, three pilot batches were prepared on the 10 g scale to assess the solid product's stability. The batches included either PTH(1-34) plus HEC, PTH(1-34) plus HEC in 1.0% mannitol and PTH(1-34) plus HEC in 1.0% lactose. The lyophilized gels were prepared according to the method of Example 8. Stability was assayed according to by HPLC.
The PTH(1-34) formulations that included HEC in 1.0% mannitol and HEC alone were prepared on a larger scale for use in a long-term stability analysis. In addition to these two lyophilized gel formulations, neat PTH(1-34), i.e., PTH powder, was also filled into vials (purged with nitrogen).
PTH was assayed by HPLC analysis of reconstituted gels/solutions. The samples were assayed before storage, stored at 40° C. and assayed at 1, 3, and 6 months after storage. At each time point, 2 assays were performed on each formulation. […]

[5] = 0.5 hr (midpoint), Mean ± SE, n = 3 Donors
[6] = 28.0 hr (midpoint), Mean ± SE, zeros below LLOQ
[7] = percent of applied dose, Mean ± SE

Row | Molecule | Mean Flux [2, 5] [ng/cm^2/hr] | Mean Flux ([2]; 1.5 hr (midpoint), Mean ± SE) [ng/cm^2/hr] | Mean Flux ([2]; 3.0 hr (midpoint), Mean ± SE) [ng/cm^2/hr] | Mean Flux ([2]; 6.0 hr (midpoint), Mean ± SE) [ng/cm^2/hr] | Mean Flux ([2]; 10.0 hr (midpoint), Mean ± SE) [ng/cm^2/hr] | Mean Flux ([2]; 18.0 hr (midpoint), Mean ± SE) [ng/cm^2/hr] | Mean Flux [2, 6] [ng/cm^2/hr] | Mean Flux ([2]; 40.0 hr (midpoint), Mean ± SE) [ng/cm^2/hr] | Total Absorption ([2]; single application, Mean ± SE) [µg] | Dermis ([2]; Mean ± SE) [µg] | Epidermis ([2]; Mean ± SE) [µg] | Stratum Corneum ([2]; Mean ± SE) [µg] | Surface Wash ([2]; Mean ± SE) [µg] | Dermis ([2]; percent of applied dose) [%] | Epidermis ([2]; percent of applied dose) [%] | Stratum Corneum ([2]; percent of applied dose) [%] | Surface Wash ([2]; percent of applied dose) [%] | Total Absorption [2, 7] [%] | effect of additive on hydration time of lyophilized 1.125% HEC 250 HX gel [3] | further results
1 | PTH(1-34): parathyroid hormone fragment 1-34, supplied by Neo-MPS | – | – | – | – | – | – | – | – | – | – | – | – | – | – | – | – | – | – | – | compatibility with anionic polymers [1]: not compatible with anionic polymers
2 | Bovine Serum Albumin: [125I] bovine serum albumin in HEC gel, 1.0 mg/mL | 4.69 ± 3.93 | 1.04 ± 1.04 | 0.71 ± 0.43 | 0.26 ± 0.12 | 0.05 ± 0.05 | 0.04 ± 0.04 | 0.02 ± 0.02 | 0.06 ± 0.03 | 0.010 ± 0.007 | 0.079 ± 0.024 | 0.423 ± 0.060 | 0.616 ± 0.157 | 3.788 ± 0.357 | 1.607 ± 0.487 | 8.610 ± 1.230 | 12.552 ± 3.202 | 77.182 ± 7.273 | 0.205 ± 0.148 | – | –
3 | CC(O)C(=O)[O-].[Na+] (stereo not drawn) [Sodium Lactate] | – | – | – | – | – | – | – | – | – | – | – | – | – | – | – | – | – | – | Sodium Lactate✓ | –
4 | XF15//339006-2: Neat PTH(1-34) from Neo-MPS, lyophilized powder, vials purged with nitrogen | – | – | – | – | – | – | – | – | – | – | – | – | – | – | – | – | – | – | – | degradation (in words) [4]: significant degradation; reduction of PTH(1-34) assay ([4]; six months of storage at 40° C.): ~25%
5 | [Cl-].[K+] [Potassium Chloride] | – | – | – | – | – | – | – | – | – | – | – | – | – | – | – | – | – | – | Potassium Chloride✓ | –
6 | Epidermal Growth Factor: [125I]-Epidermal Growth Factor (murine) in HEC gel, 0.1 mg/mL | 0.40 ± 0.21 | 0.11 ± 0.08 | 0.07 ± 0.06 | 0.04 ± 0.02 | 0.09 ± 0.06 | 0.01 ± 0.01 | 0.00 ± 0.00 | 0.01 ± 0.00 | 0.001 ± 0.000 | 0.008 ± 0.002 | 0.013 ± 0.001 | 0.014 ± 0.001 | 0.479 ± 0.005 | 1.629 ± 10.311 | 2.646 ± 0.242 | 2.773 ± 0.131 | 98.145 ± 1.046 | 0.278 ± 0.095 | – | –
7 | [Cl-].[Na+] [Sodium Chloride] | – | – | – | – | – | – | – | – | – | – | – | – | – | – | – | – | – | – | Sodium Chloride✓ | –
8 | Somatostatin: [125I]Tyr11-Somatostatin 14 in HEC gel, 1.0 mg/mL (AGCKNFFWKTY(125I)TSC; ends and bridges not checked; UniProt P61278 103-116, looked up, variant F11Y) | 8.09 ± 3.68 | 2.14 ± 1.89 | 0.54 ± 1.89 | 0.22 ± 0.20 | 0.11 ± 0.05 | 0.02 ± 0.02 | 0.00 ± 0.00 | 0.01 ± 0.00 | 0.013 ± 0.007 | 0.118 ± 0.008 | 0.180 ± 0.010 | 0.190 ± 0.009 | 4.561 ± 0.118 | 2.410 ± 0.169 | 3.697 ± 0.200 | 3.886 ± 0.180 | 93.493 ± 2.412 | 0.234 ± 0.149 | – | –
